B1: recombinant human Bri2(90-236) (other, not shown: small tags and cut ends)
chain: GIKYIKDDVILNEPSADAPAALYQTIEENIKIFEEEEVEFISVPVPEFADSDPANIVHDFNKKLTAYLDLNLDKCYVIPLNTSIVMPPRNLLELLINIKAGTYLPQSYLIHEHMVITDRIENIDHLGFFIYRLCHDKETYKLQRRET

Legend:
human Aβ1-40 peptide = human Aβ1-40 peptide (human); assay: cell-based or functional assay
[1] = target: B1; assay: ESI-MS
Procedure: Protein and peptides were mixed at 22° C. directly before analysis at a final protein concentration of 20 μM and a final peptide concentration of 50 μM. Data was acquired using a QTOF Ultima API mass spectrometer (Waters, Milford, Mass., USA) equipped with a Z-spray source operated in the positive-ion mode. Samples were introduced via nano-electrospray using metal-plated borosilicate glass capillary needles (Proxeon, Denmark). The source temperature was 80° C., the capillary voltage 1.7 kV, and the cone and RF lens 1 potentials were 100 and 38 V, respectively. The mass spectrometer was operated in single-reflector mode at a resolution of 10 000 (full width half maximum definition), and the mass scale was calibrated using myoglobin. Scans were acquired at a rate of 1 scan per 2 sec between 500 and 4000 m/z. The collision gas was argon at 5.2×10⁻⁵ mbar. Mass spectra were smoothed using the Waters MassLynx software.
Mass spectra were recorded to investigate the presence and stoichiometry of protein-peptide complexes in the gas phase.

Sequence of human Aβ1-40 peptide (human) (peptide, as listed by the source): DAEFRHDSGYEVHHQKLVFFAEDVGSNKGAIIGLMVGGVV

Row | fold prolongation of the half time of Aβ1-40 aggregation, ThT fluorescence (human Aβ1-40 peptide) | binding result [1] | Binder
1 | ~4.5 times | – | B1
2 | – | binds | H-KFFEYNGKKFFE-OH (also called synthetic peptide)

From patent US20130172262A1 (ALPHABETA, published 2013)
